Measurements: patent publication US7947279B2, “Peptide having hydrolase activity” (The Trustees of Columbia University in the City of New York, priority 2005, dated 2011)
“Also recorded” adds a separate entry of the source.

How the values were obtained:
[1] = test system: CA1-LTP in hippocampal slices; assay: CA1-LTP in hippocampal slices (theta-burst); assay type: cell-based, mouse; settings: for Aβ-induced impairment of CA1-LTP (words): fusion protein 20 nM 1 hr, then plus Aβ 200 nM 20 min; for LTP in slices not treated with Aβ (words): fusion protein 20 nM, 3 theta-burst trains
[2] = test system: BST at the Schaffer collateral/CA1 connection of hippocampal slices; assay: Basal synaptic transmission (BST) in hippocampal slices; assay type: cell-based, mouse; settings: for BST in WT slices (words): fusion protein 20 nM 1 hr or Aβ 200 nM 20 min, alone
mice (WT and APP/PS1) = assay: Contextual and cued fear conditioning; assay type: in vivo, mouse; settings: for contextual freezing of APP/PS1 mice 1 day after training: 0.02-0.04 g/kg i.p. 4 hrs before training, 3-5 month-old
Protocol: Behavioral Studies: Fear conditioning was performed in a conditioning chamber as previously described (Bourtchuladze et al., 1994; Gong et al., 2004). For contextual and cued fear conditioning mice were placed in the conditioning chamber for 2 min before the onset of a discrete tone (CS) (a 30 sec sound at 2800 Hz and 85 dB). In the last 2 sec of the CS, mice were given a foot shock (US) of 0.50 mA for 2 sec through the bars of the floor. After the CS/US pairing, the mice were left in the conditioning chamber for another 30 sec and then placed back in their home cages. Freezing behavior, defined as the absence of all movement except for that necessitated by breathing, was scored using Freezeview software. To evaluate contextual fear learning, freezing was measured for 5 min in the chamber in which the mice were trained 24 hrs after training. To evaluate cued fear conditioning, following contextual testing, the mice were placed in a novel context (triangular cage with smooth flat floor and with vanilla odorant) for 2 min (pre-CS test), after which they were exposed to the CS for 3 min (CS test), and freezing was measured. To evaluate the contextual fear over time, mice were placed for 5 min in the chamber in which the mice were trained 7- 14- 21-days after training. Sensory perception of the shock was determined through threshold assessment. Each animal was placed individually into the conditioning chamber. […] Animal behavior was evaluated for the first visible response to the shock (flinch), the first extreme motor response (run/jump), and the first vocalized distress (scream). Threshold to flinching, jumping, and screaming was quantified for each animal by averaging of the shock intensity at which each animal manifested a behavioral response of that type to the foot shock. Visual, motor, and motivation skills were also tested with visible platform training by measuring the time and the speed to reach a visible platform placed within a pool filled with water (Gong et al., 2004). Both time to reach the platform and swimming speed were recorded and analyzed with a video tracking system (HVS-2020, HVS Image, UK). No difference was observed among different groups of mice in the experiments in which fear conditioning was tested both in the presence of LDN and TAT fusion proteins. To decide the time of administration of LDN, experiments were performed in which the inhibitor was injected intra-peritoneally at different intervals (4 hrs before, 1 hr before, 1 hr after and 4 hrs after) from the electric shock. During the training phase, no difference was found in the freezing of LDN- or vehicle-injected mice.

[3] = test system: SY5Y neuroblastoma cells transfected with a degron CL1-GFP expression vector; assay: Proteasome reporter assay (GFP^u); assay type: cell-based, human; settings: fusion protein 20 nM with Aβ
Outline: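 SH-SY5Y neuroblastoma cells stably expressing GFP fused to CL1 degron (GFP^u) in DMEM with 15% FBS. After treatment, GFP^u levels quantified by densitometry of anti-GFP immunoblots of total extracts (10 ug/lane), normalized to ERK.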

phospho-CREB at Ser-133 = assay: Phospho-CREB (Ser-133) Western blot in hippocampal cultures; assay type: cell-based, rat
Outline: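 Rat E18 hippocampal neurons cultured serum-free to 5 DIV, lysed in RIPA (pH 7.4, with phosphatase and protease inhibitors). Lysates resolved by SDS-PAGE and immunoblotted with anti-pCREB, HRP detection; band intensities quantified by densitometry and normalized to total ERK1/2.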

[4] = 20 nM, 1 hr, listed as TAT-Uch-L1 fusion protein
[5] = 12-18 month APP/PS1 slices, 20 nM 1 hr
[6] = listed as TAT-HA-Uch-L1 peptide
[7] = listed as Uch-L1 fusion protein

B1: TAT-HA-Uch-L1: fusion protein: 11-amino acid transduction domain of HIV-transactivator protein (TAT) fused with an HA tag and human Uch-L1 (protein)
chain: MQLKPMEINPEMLNKVLSRLGVAGQWRFVDVLGLEEESLGSVPAPACALLLLFPLTAQHENFRKKQIEELKGQEVSPKVYFMKQTIGNSCGTIGLIHAVANNQDKLGFEDGSVLKQFLSETEKMSPEDRAKCFEKNEAIQAAHDAVAQEGQCRVDDKVNFHFILFNNVDGHLYELDGRMPFPVNHGASSEDTLLKDAAKVCREFTEREQGEVRFSAVALCKAA
modifications: left off: small tags and cut ends
- LTP in slices from 4 month-old APP/PS1 mice ([1]; 20 nM, 1 hr): far greater potentiation; also recorded: elevated above vehicle treated slices; also recorded: completely reversed
- LTP in slices from 4 month-old WT mice ([1]; 20 nM, 1 hr): did not change the amplitude of LTP; also recorded: had no effect on LTP amplitude
- LTP in slices from 12-18 month-old APP/PS1 mice ([1]; 20 nM, 1 hr): greater potentiation; also recorded: had a beneficial effect; also recorded: reversed the impairment of LTP
- LTP in slices from 12-18 month-old WT mice ([1]; 20 nM, 1 hr): did not change the amplitude of LTP; also recorded: did not vary the amounts of potentiation; also recorded: did not affect LTP
- LTP in slices from 12-18 month-old APP/PS1 mice [1, 4]: reverses the decrease of LTP
- LTP in slices from 12-18 month-old WT mice [1, 4]: does not affect LTP
- Levels of LTP at 120 minutes after tetanus ([1]; 4 month APP/PS1 slices, 20 nM 1 hr): about 94 % those of TAT-HA-treated WT littermates
- Levels of LTP at 120 minutes after tetanus ([1]; 4 month WT slices, 20 nM 1 hr): about 98 % those of vehicle-treated WT slices
- levels of LTP [1, 5]: about 82 % that of TAT-HA-treated WT littermates
- Levels of LTP at 120 minutes after tetanus ([1]; 12-18 month WT slices, 20 nM 1 hr): 98.5 % of those of TAT-HA-treated WT slices
- rescue of LTP at different concentrations, S18Y versus TAT-HA-Uch-L1 (words) ([1]; 1 hr pre-treatment, then Aβ 200 nM 20 min, as low as 5 nM): No difference was detected; also recorded: no difference between the two forms
- LTP induced by weak tetanus ([1]; WT slices, 1 theta-burst train instead of 3): enhanced LTP; also recorded: increases LTP
- Aβ-induced impairment of CA1-LTP (words) [1]: protected against LTP suppression; also recorded: completely reversed
- Aβ-induced impairment of CA1-LTP (words) [1, 6]: protected against LTP suppression
- Aβ-induced impairment of CA1-LTP (words) ([1]; listed as TAT-Uch-L1 fusion protein): reversed; also recorded: rescued
- Aβ-induced impairment of CA1-LTP (words) [1, 7]: reverses the deficits of LTP
- LTP in slices not treated with Aβ (words) ([1]; 1 hr, WT slices): did not change the amplitude of LTP; also recorded: had no effect on LTP; also recorded: did not affect the amounts of potentiation; also recorded: did not affect LTP
- LTP in slices not treated with Aβ (words) ([1]; 1 hr, WT slices, listed as Uch-L1 fusion protein): does not affect
- baseline transmission in slices without tetanic stimulation ([1]; non-tetanized slices): did not modify the baseline; also recorded: had no effect on basal synaptic responses; also recorded: did not affect baseline transmission; also recorded: did not affect basal transmission; also recorded: Neither TAT-HA-Uch-L1 nor TAT-HA-iUch-L1 affected baseline transmission
- BST in slices from 12-18 month-old APP/PS1 mice ([2]; 20 nM, 1 hr): also improved; also recorded: improved BST
- BST [2, 5]: about 94 % that of TAT-HA-treated WT mice
- BST in WT slices (words) [2]: did not reveal any significant difference among treatments; also recorded: does not affect CA1-BST
- BST in WT slices (words) [2, 7]: does not affect
- contextual freezing of APP/PS1 mice 1 day after training (mice (WT and APP/PS1)): failed to re-establish normal freezing; also recorded: does not improve learning the day after training
- contextual freezing of APP/PS1 mice 1 day after training (mice (WT and APP/PS1); listed as TA-HA-Uch-L1): failed to re-establish normal freezing
- freezing responses of WT mice (mice (WT and APP/PS1); 0.02-0.04 g/kg i.p., listed as TA-HA-Uch-L1): had no effect
- freezing responses of WT mice (mice (WT and APP/PS1); 0.02-0.04 g/kg, i.p.): did not change the freezing time; also recorded: had no effect
- contextual freezing of APP/PS1 mice at 7, 14 and 21 days after training (mice (WT and APP/PS1); single injection 0.02-0.04 g/kg i.p. 4 hrs prior to training): greatly increased the freezing time; also recorded: improves the retention of contextual fear conditioning; also recorded: re-established normal freezing time
- Aβ-induced increase of GFP^u [3]: reversed
- Aβ-induced increase of GFP^u [3, 6]: blocked the increase of GFP^u
- effect of Aβ on glutamate-induced CREB phosphorylation (words) (phospho-CREB at Ser-133; fusion protein 100 nM, 3 μM Aβ 24 hrs, 50 μM glutamate 15 min): totally blocked the effect of Aβ on CREB phosphorylation; also recorded: re-established; also recorded: completely opposed
- levels of phospho-CREB (phospho-CREB at Ser-133; fusion protein alone, no glutamate): did not affect levels of phospho-CREB
